Values quoted from earlier work as cited in US4287185A, “Method for the detection of viruses” (Suntory Ltd., priority 1978, dated 1981).

Details: mouse, in vivo

B1: neocarzinostatin (protein, UniProt P0A3R9 35-147, looked up)
Neocarzinostatin: AAPTATVTPSSGLSDGTVVKVAGAGLQAGTAYDVGQCAWVDTGVLACNPADFSSVTADANGSASTSLTVRRSFEGFLFDGTRWGTVDCTTAACQVGLSDAAGNGPEGVAISFN
notes: carcinostatic agent having 109 constituent amino acids, already put into clinical practice
LD50 compared with that of SP (about 3.5 mg/Kg): almost the same
